{"source": "the DeepSol protein solubility set", "data": [{"test": "soluble on expression in E. coli; label from the status in PepcDB or PDB records", "values": [{"sequence": "MDAVRQSFQQLQNELRRDWCGIEAGGLASDYDILVVPSLSLDAHELQKISGVLFYEERLLFSLIRLRDPRTRVIYVTSEPLPPLVIDYYLQLLPGIPFSHARDRLLLLSTCDSSLKPLTQKILERPRLLERIRRALRPGSSFMTCFNSSPLERELSVALRVPLFAADPDLLEWGTKAGSRSLFAECGLPHPAGSPLMDSVEDLAAAAAELWQDQPQAQRFVIKLNQGFSGEGNALLDLRPIAQQSPDRVGLTAASQAIAQQFPVMRFQAAHETWQNFQGRITDLGAIAELFIEGEVKRSPSVQGCIHPSGQVEILSTHDQILGGPDGQIYLGCRFPADPAYRLQLQKWGEQIGEALAQRGALERFGVDFVAVNQGGDHWELQAIEINLRKGGTTHPFMTLKYLTNGYYDPQSGQFCSELGQPKYYVATDNLQSPRYRGVLPQDLMDIIAANQLHFDSSTKTGTVFHLMGCLSQYGKLGLTSIGNSPEQAQALYDEVVSVLDRETDPALEHHHHHH", "soluble on expression in E. coli": "soluble"}, {"sequence": "MKKSLDEHAERFSDHADAYDEDQDSAAYRACVNFVVDHAAPESDDVVLDLGTGTGAIAFALASDAAEIIGRDISDGMLEKAREKADGRGVENVSFGDGRFRAPNVDRPVDIVTSNFAMHHLGDDEKREAIDTIADLGPRRIVLGDVMLFGDDDPDAPFYSPEVDDPATVGVLADAFTDAGYALTAVEMVTEQAGVLVAERVKSDLEHHHHHH", "soluble on expression in E. coli": "soluble"}, {"sequence": "MNRGSLYITATPIGNREDITLRAIDTLRSVDLIAAEDTRHSKKLLEHYGIKTPLLSLHEHNEAARATLLCEKLKQGLNVALISDAGTPLISDPGYRLVNAVREAGIEVVPIPGACAAIAALVASGLPTDRFIFEGFIPSKGEVRRKKLEDLKNQRRTIIFYESVHRIVNLIDLLNEIFGTERRATIARELTKKFETIHTATLAELKNWINENPVQEKGEFVVIVAGQTEKLTEINEEHQQLLTLLLSELSLKQAVSLATKISGLPRKKLYALALTIQQHLPHHRY", "soluble on expression in E. coli": "soluble"}, {"sequence": "MAYATVEDMVARFGELEVLQLTDRNNEGLIDREVAQTALVDATAEIDAYLGRFRRPFEDLPPILVRLCCDIARYRLTAAQGVLITDEIRNRYKIDVLDLLRAMAKGEVQLGVDDSGEEVAAGEDGIVFVNGKNKVFGRDH", "soluble on expression in E. coli": "not soluble"}, {"sequence": "MSFLGFTLVGKKIRWTEKSLANFKHRVRQLTGRSWGVSMEYRLEKLGQYLRGWFGYYGISQYYRPIPELDEWIRRRVRMCYWKQWRWARTKIRHLLDLGIPLKAAIQHGVSSLSYWRMARTPLEHHHHHH", "soluble on expression in E. coli": "soluble"}, {"sequence": "MGSDKIHHHHHHMLKITFLGTNGWFDSNTGNTPSVLIEHRNYYIILDAGNGISKLRNCISSDKPVYLFLSHFHLDHISGLHTLPLNKFSKGLYIIVPKGGTKLINQFVNVPFTVPIKKLPFKTEIIEACNKLNFLPFKATFLPLVHSSYVLGIRLEIDSKTISYCTDTSYCFNAITLAKNADLLISECSMKPLGTDDASVHLNPELASKIAKEAGAKKLMLIHFDAAKYLTLDDRKKAELAAKTIFNNSYASYDDLELQV", "soluble on expression in E. coli": "not soluble"}, {"sequence": "GPGSMTRRNAMSDNTTSTSSVTPERYPFCIVWTDIPLVSWLFPFVGHVGICDSTGRIFDFEGSYCIGVDHMLFGNPVKYWDISAMYVPSSRFPPGGLLSGDVEERRRRETEEYDRALSGVTTRFRKTQTYNFFTNNCHSYVASVLEEMTNGPRRPWNMFWIAWGLAIHGRSLLKSPSSLPRYRRPLCDRRCTLGLTRSK", "soluble on expression in E. coli": "not soluble"}, {"sequence": "MDGYTGSHVVRCALRLAPLVFVRPGELRKAEWKDIDLDGGEWRYTVTKTNTPHIVPLSTQAVEILKELQALTGRSRFVFPGARTNGRPMSDNAILAALRRMGIDKEEMSGHGFRAMARTILDEVLGVRPDFIEHQLAHSVRDPLEHHHHHH", "soluble on expression in E. coli": "not soluble"}, {"sequence": "SSNAKIDQLSSDVQTLNAKVDQASNDANAARSDAQAAKDDAARANQRLDNMATKYR", "soluble on expression in E. coli": "soluble"}, {"sequence": "MVLKERHKKICLLPSYSRLAHYPGLLMLTTLIYRSHIRGDEPVKKIEEMVSIANRRNMRSDVTGILLFNGSHFFQLLEGPEEQVQMIYRAICQDPRHYNIVELLCDYAPARRFGKAGMELFDLRLHERDDVLQAVFDKGTSKFQLTYDDRALQFFRTFVLATEQSTYFEIPAEDSWLFIADGSDKELDSCTLSSNINDHFAFHPIVDPLSRRIIAFEAIVQKNEDSPSAIAVGQRKDEEIYTADLKSKALAFAMAHALKLGDKMISINLLPMTLVNKPDAVSFLLDEIKANALVPEQIIVEFTESEVISRFDEFAEAVKSLKAAGISVAIDHFGAGFAGLLLLSRFQPDRIKISQELITNVHKSGPRQAIIQAIMKCCTSLEIQVSAMGVATPEEWMWLESAGIEMFQGDLFSKAKLNGIPSVAWPEKK", "soluble on expression in E. coli": "not soluble"}, {"sequence": "MAHHHHHHMPGKRKRVQGDDNTESQASAVPQGDGQTRARPESHGDTNQPAATHIRVEEPRQPQWTLESRLEDVLLEGKERITNMRLNDFLRNYFDGRGVEEFNENVYMKYFLISPNEFIKDEVLLSTIKVSPPYQELKKEREEFYMLLEASNKLKKECIITLEQWSNFERKDTVTPLARAQINTAFSRVLREERWEAEERQRRERQEMGIDVSTRIKYAVLKGRVRVNKMKLNDFLTMELDGRGVGSANWNFLLRDFFICSTKYIYDVFLLLKIQASDRYNTMERAVRDEMDMEEDVNRLYKNGVDNLLKWLVAAAEVKANVHEVTKRFLDAAAEEAREPKKSSAPMKLEGCYESVYNASWHHFVEVPDGEGTVMEVREGEPPRSWTYKAVGDTLERNDGVEQSGAPRPRLMVLTSDKGWPYTWRRMDPLVAAM", "soluble on expression in E. coli": "not soluble"}, {"sequence": "MKINIRDSTMVRPATETPITNLWNSNVDLVIPRFHTPSVYFYRPTGASNFFDPQVMKEALSKALVPFYPMAGRLKRDDDGRIEIDCNGAGVLFVVADTPSVIDDFGDFAPTLNLRQLIPEVDHSAGIHSFPLLVLQVTFFKCGGASLGVGMQHHAADGFSGLHFINTWSDMARGLDLTIPPFIDRTLLRARDPPQPAFHHVEYQPAPSMKIPLDPSKSGPENTTVSIFKLTRDQLVALKAKSKEDGNTVSYSSYEMLAGHVWRSVGKARGLPNDQETKLYIATDGRSRLRPQLPPGYFGNVIFTATPLAVAGDLLSKPTWYAAGQIHDFLVRMDDNYLRSALDYLEMQPDLSALVRGAHTYKCPNLGITSWVRLPIYDADFGWGRPIFMGPGGIPYEGLSFVLPSPTNDGSLSVAIALQSEHMKLFEKFLFEI", "soluble on expression in E. coli": "soluble"}, {"sequence": "MITSDSHMHTRFSTDSDADIRDMIESALKKGLQSICITDHIDKDYPFHEDTGAEAFLVDLDEYFPKLAEWKEAYAEKIQIRRGIELGLQPHLAGFYEELTNQYPFDFVIGSVHVVHGMDPYYGEIFEGRSDEEVYKETFLATLENLDAVSSFDVLGHLDYVVRYGKCQARQYSYKKYAQEIDEILKKVIAMGKGIELNTAGWKYGLAFCHPHPEILCRYKELGGEIITVGSDAHKPEHVAYDFQKAADVLKACGFKYYTEFQDRKPIFKQLL", "soluble on expression in E. coli": "soluble"}, {"sequence": "MESVYLFSSGTLKRKANTICLETESGRKYIPVENVMDIKVFGEVDLNKRFLEFLSQKRIPIHFFNREGYYVGTFYPREYLNSGFLILKQAEHYINQEKRMLIAREIVSRSFQNMVDFLKKRKVRADSLTRYKKKAEEASNVSELMGIEGNAREEYYSMIDSLVSDERFRIEKRTRRPPKNFANTLISFGNSLLYTTVLSLIYQTHLDPRIGYLHETNFRRFSLNLDIAELFKPAVVDRLFLNLVNTRQINEKHFDEISEGLMLNDEGKSLFVKNYEQALRETVFHKKLNRYVSMRSLIKMELHKLEKHLIGEQVFGSEE", "soluble on expression in E. coli": "soluble"}, {"sequence": "MNVFKTQTLLCPSGVHSRPEDHDETPFLCSKAQSVTVVAFLVARLLATLATHQMTSHTEGLRKGGGRKDTQLMKGQCSAIKVIFWPGCLPQPRMHSRLHIRSINKGGQLRPTGCNK", "soluble on expression in E. coli": "soluble"}, {"sequence": "MDTSTNLDIGAQLIVEECPSTYSLTGMPDIKIEHPLDPNSEEGSAQGVAMGMKFILPNRFDMNVCSRFVKSLNEEDSKNIQDQVNSDLEVASVLFKAECNIHTSPSPGIQVRHVYTPSTTKHFSPIKQSTTLTNKHRGNEVSTTPLLANSLSVHQLAAQGEMLYLATRIEQENVINHTDEEGFTPLMWAAAHGQIAVVEFLLQNGADPQLLGKGRESALSLACSKGYTDIVKMLLDCGVDVNEYDWNGGTPLLYAVHGNHVKCVKMLLESGADPTIETDSGYNSMDLAVALGYRSVQQVIESHLLKLLQNIKE", "soluble on expression in E. coli": "soluble"}, {"sequence": "MGSDKIHHHHHHMSVPLRAVQLTEPSLFLQEHPEVQFVDLLISDMNGVVRGKRIERNSLPKVFEKGINLPASLFALDITGSTVESTGLGLDIGDADRICYPIPGTLSMEPWQKRPTAQLLMTMHELEGEPFFADPREVLRQVVARFTEMELTIVAAFELEFYLIDQENVNGRPQPPRSPISGKRPQSVQVYSIDDLDEYVECLQDIIDGARAQGIPADAIVAESAPAQFEVNLHHVADPMKACDYAVLLKRLIKNIAYDHEMDTTFMAKPYPGQAGNGLHVHISLLDKHGNNIFTSEDPEQNAALRHAIGGVLETLPASMAFLCPNVNSYRRFGSQFYVPNAPSWGLDNRTVALRVPTGSPDAVRLEHRVAGADANPYLLLASVLAGVHHGLTNKVEPGAPIEGNSYEQLEPSLPNNLRDALRELDDSEILAKYIDPKYIDIFVACKESELEEFEYSISDLEYNWYLHTV", "soluble on expression in E. coli": "not soluble"}, {"sequence": "GPGSMDDRSLKLAEDFVSARYIDAGRESLRSTARILRSILAQRCCPDEGLTDAAIELILRQLSLMDTNNFARHVGGGEREGRVVSALVRMRHFHLTHGVGRSGDLFSEQPKAAGSSLLYKITNVLMLDLIRQAGAPSTAAAVVVPMA", "soluble on expression in E. coli": "not soluble"}, {"sequence": "DSSALPTKRKTVKLFWRELKLAGGHGVSASRFGPCATLWASLDPVSVDTARLEHLFESRAKEVLPSKKAGEGRRTMTTVLDPKRSNAINIGLTTLPPVHVIKAALLNFDEFAVSKDGIEKLLTMMPTEEERQKIEEAQLANPDIPLGPAENFLMTLASIGGLAARLQLWAFKLDYDSMEREIAEPLFDLKVGMEQLVQNATFRCILATLLAVGNFLNGSQSSGFELSYLEKVSEVKDTVRRQSLLHHLCSLVLQTRPESSDLYSEIPALTRCAKVD", "soluble on expression in E. coli": "not soluble"}, {"sequence": "MLTEERHQKILQLLDQKSVVKSQELASLFNASESTIRRDLQELEDANLLERIHGGAKRILNLGFEQNMTEKSIKNTHEKQKIASLAVSCVQDGDMIYLDAGSTTLEMIPFLVGKQIHVVTNSVHHAAKLSDMEIPTIMLGGTLKLSTKAIIGATSMEQLQHFRFNKAFLGTNGAHLEFGLTTPDPEEAALKALAIHQAETAYVLLDHTKFNEVTFTKVEELESVTLLTDYCPAESLQGFQQKTILMEANKLEHHHHHH", "soluble on expression in E. coli": "soluble"}, {"sequence": "MQEQIQEYAKRLKLSWIRENYREVEAANTEEYLLKLFEKEIEQREERKINLLFKAATLPNVSGKPFDWKDIQLGQGLSQQSLLDGEFIESKENMVFYGGVGAGKTYLSTLIGMNAIQKYGKRVKFYTIASLANELLEANDKGNLNKLFKKIEKLDLLILDELGYIPLHKHGAELLFQVISLCYEKRSIIITTNLQFGQWNHVFGDPILTEAVVDRLIHHSHLVIFGGDSNRMKKSFLLNNMLEHHHHHH", "soluble on expression in E. coli": "soluble"}, {"sequence": "MRLVDLRSDTLTRPTPAMRKAMAEAEVGDDAYGEDPTVNRLEALAAERLGFERALFLPSGTMANQVALLLHLPKELEAEARRYRKLLGGGWRQAGVLAAAGILALEEGPKHLRRDHEMARALAEGLFRLGLAVDLGAVETNMVYLEVEDPEGFLQGLRARGVLAGRVGGRVRFVTHRDLMDEDIPLALERVQDLLHSRPR", "soluble on expression in E. coli": "soluble"}, {"sequence": "MGHHHHHHSHGSCEVLRLLDLGASPSYRRWIWQHLELIDGRPLKTHLSEYSPMERFKEFQIKSYPLQDFSSLKLPHLKKAWGLQGTSFSRKIRTSGDTLPKMLGPKIQSRPAQSIKCAMINIKPGELPKEAAVGAYVKVHTVEQGEILGLHQAFLPEGECDTRPLILMSLGNELIRIRKEIFYELIDNDDEMIKKLLKLNIAFPSDEDMCQKFLQQNSWNIFRKDLLQLLVEPCQSQLFTPNRPKKREIYNPKSVVLDLCSINKTTKPRYPIFMAPQKYLPPLRIVQAIKAPRYKIRELLA", "soluble on expression in E. coli": "not soluble"}]}]}
